# From publication PMC11446282
# Target: fluorescent peptide probe FITC-PEG2-…-Nle-IKKLEW
# Assay: fluorescence polarisation
# B55α (His-Strep-TEV fusion protein), sequence (P63151 whole entry, the tested form may be a part): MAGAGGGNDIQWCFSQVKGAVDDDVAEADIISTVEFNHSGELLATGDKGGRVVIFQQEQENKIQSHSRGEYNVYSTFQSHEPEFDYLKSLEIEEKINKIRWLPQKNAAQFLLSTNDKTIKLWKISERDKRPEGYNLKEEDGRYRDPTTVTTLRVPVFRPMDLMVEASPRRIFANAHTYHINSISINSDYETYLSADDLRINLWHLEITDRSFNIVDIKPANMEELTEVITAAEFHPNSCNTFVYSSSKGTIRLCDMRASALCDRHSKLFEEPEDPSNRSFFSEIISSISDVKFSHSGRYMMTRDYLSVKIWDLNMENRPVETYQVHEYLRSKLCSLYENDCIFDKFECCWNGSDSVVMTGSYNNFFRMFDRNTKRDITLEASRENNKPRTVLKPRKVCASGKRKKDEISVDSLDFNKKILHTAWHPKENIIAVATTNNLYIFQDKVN
substance,measurement,value
B55α (His-Strep-TEV fusion protein) (from UniProt P63151 1-447) (natural protein),Kd,6 nM
